Data on 1 molecule can be found in article PMC8158011 (Proceedings of the National Academy of Sciences of the …, 2021).

The assay has as its target T1, FGFR4-Ecto-Fc (ectodomain of human FGFR4 fused to the Fc region of human IgG1) (human, UniProt P22455 22-369).
T1 sequence (looked up): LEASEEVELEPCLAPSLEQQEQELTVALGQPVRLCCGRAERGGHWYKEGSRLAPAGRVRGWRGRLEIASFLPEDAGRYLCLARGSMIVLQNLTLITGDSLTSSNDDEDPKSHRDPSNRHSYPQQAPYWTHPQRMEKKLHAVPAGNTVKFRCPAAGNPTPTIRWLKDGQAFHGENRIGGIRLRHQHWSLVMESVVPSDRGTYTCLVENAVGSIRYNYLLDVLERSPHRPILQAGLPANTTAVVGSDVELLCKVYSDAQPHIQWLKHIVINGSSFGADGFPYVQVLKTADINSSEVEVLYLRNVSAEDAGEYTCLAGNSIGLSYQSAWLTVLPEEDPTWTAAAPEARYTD
The assay can be described thus: pull-down.

B1: purified recombinant human FAM3B-His protein (ligand, UniProt P58499 30-235, looked up)
chain: ELIPDAPLSSAAYSIRSIGERPVLKAPVPKRQKCDHWTPCPSDTYAYRLLSGGGRSKYAKICFEDNLLMGEQLGNVARGINIAIVNYVTGNVTATRCFDMYEGDNSGPMTKFIQSAAPKSLLFMVTYDDGSTRLNNDAKNAIEALGSKEIRNMKFRSSWVFIAAKGLELPSEIQREKINHSDAKNNRYSGWPAEIQIEGCIPKERS
On to B1, for which the binding result is reported as “binds”.
